Values of other authors as cited in article PMC12390062.

What was measured:
[1] = biological target: nicotinic acetylcholine receptor α7 (Gallus gallus) (UniProt P22770)
[2] = biological target: nicotinic acetylcholine receptor α-δ interface α-δ interface (Mus musculus) (UniProt P04756)
[3] = biological target: nicotinic acetylcholine receptor α-γ interface α-γ interface (Mus musculus) (UniProt P04756)

Substance	Kd [1] [µM]	Kd [2] [µM]	Kd [3] [µM]
wNTX5 (Group 3b (ii) toxin) (from UniProt O42255)	90		
α-conotoxin MI (from UniProt P01521)		0.00062	20
